Assay results reported in the supplement of paper PMC9876800.

Test system: peptide library, one residue held at a place counted from the S/T acceptor
Test: relative phosphorylation of the sub-library (ratio to the mean residue at this position); higher = residue favoured
Summary of the method: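 In 384-well plates, purified recombinant kinases (human or orthologue constructs) were incubated for 90 min under kinase-specific conditions with 50 μM biotinylated degenerate peptide sub-libraries and 50 μM ATP spiked with γ-32P-ATP. Each sub-library fixed a single residue at one position around a central Ser/Thr. Relative sub-library phosphorylation, measured by phosphorimaging and densitometry of streptavidin membrane spots, is given as a ratio to the mean residue at that position.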

Sequence of ATR, construct: Full length, human (Q13535 whole entry, looked up): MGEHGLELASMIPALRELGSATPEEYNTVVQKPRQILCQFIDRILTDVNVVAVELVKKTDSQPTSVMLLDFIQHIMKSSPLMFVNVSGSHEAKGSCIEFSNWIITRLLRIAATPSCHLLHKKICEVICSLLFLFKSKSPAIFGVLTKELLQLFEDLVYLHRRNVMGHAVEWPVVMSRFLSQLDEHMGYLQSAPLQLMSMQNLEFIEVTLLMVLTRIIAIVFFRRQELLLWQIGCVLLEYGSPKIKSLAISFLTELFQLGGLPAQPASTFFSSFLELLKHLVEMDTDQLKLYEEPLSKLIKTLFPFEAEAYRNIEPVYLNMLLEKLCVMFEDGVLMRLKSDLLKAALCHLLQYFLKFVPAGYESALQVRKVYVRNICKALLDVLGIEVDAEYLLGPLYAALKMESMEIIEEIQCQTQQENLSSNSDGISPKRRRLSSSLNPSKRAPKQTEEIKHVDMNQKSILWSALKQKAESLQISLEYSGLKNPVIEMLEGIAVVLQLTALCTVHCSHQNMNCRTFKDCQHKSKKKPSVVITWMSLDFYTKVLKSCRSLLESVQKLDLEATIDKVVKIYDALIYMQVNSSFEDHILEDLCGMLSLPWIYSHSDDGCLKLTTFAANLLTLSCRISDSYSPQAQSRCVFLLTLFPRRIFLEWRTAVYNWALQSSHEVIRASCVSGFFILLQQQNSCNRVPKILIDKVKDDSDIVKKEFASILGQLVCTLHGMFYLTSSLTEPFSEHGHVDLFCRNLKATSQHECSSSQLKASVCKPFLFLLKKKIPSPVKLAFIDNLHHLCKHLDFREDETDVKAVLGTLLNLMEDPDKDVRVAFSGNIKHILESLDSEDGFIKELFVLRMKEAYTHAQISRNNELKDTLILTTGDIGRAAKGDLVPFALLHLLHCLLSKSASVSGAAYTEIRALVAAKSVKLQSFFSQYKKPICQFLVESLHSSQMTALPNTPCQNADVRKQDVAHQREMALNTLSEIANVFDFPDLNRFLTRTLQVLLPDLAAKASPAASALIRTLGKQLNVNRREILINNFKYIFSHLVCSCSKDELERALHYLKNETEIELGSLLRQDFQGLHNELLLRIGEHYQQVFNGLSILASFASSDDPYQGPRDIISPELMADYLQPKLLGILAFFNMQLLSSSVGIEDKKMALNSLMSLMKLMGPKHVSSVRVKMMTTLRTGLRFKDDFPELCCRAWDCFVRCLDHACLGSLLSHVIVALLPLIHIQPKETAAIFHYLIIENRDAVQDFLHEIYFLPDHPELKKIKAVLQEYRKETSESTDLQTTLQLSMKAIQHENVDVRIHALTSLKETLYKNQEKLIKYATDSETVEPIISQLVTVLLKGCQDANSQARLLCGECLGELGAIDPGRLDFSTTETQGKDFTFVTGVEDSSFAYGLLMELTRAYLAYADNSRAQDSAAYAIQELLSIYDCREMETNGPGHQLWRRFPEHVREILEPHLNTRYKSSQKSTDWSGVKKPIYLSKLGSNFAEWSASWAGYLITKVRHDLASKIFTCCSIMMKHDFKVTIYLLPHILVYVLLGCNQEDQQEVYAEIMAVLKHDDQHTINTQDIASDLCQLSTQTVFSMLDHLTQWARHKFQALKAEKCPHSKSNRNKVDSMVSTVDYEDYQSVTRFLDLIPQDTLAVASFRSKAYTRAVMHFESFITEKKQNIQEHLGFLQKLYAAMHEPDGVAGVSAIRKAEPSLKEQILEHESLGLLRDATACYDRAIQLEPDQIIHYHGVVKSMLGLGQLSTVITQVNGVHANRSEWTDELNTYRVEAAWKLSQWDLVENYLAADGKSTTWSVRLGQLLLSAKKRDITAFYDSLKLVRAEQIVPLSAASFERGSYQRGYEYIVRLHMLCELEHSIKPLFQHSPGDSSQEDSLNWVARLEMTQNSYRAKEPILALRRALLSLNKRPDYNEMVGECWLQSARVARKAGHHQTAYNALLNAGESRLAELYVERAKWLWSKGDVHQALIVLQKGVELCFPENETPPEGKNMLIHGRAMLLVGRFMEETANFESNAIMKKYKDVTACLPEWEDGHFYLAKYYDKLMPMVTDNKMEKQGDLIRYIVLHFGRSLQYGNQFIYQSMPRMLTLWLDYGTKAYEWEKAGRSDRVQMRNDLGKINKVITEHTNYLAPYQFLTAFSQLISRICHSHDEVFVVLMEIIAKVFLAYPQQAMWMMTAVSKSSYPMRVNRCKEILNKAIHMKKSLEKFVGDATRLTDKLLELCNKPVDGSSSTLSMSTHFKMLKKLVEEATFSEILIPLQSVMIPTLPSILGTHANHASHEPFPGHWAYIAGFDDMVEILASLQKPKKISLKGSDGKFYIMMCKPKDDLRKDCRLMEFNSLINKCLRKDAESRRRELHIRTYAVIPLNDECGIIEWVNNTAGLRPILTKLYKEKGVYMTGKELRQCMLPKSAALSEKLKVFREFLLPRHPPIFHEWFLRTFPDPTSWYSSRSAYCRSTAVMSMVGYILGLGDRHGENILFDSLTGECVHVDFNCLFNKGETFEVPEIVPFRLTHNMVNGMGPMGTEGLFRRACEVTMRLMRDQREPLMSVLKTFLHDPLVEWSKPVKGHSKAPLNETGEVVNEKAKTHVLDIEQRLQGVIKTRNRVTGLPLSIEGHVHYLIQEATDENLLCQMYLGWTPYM
Sequence of BMPR1A, construct: aa187-end, human (P36894 187-532, looked up): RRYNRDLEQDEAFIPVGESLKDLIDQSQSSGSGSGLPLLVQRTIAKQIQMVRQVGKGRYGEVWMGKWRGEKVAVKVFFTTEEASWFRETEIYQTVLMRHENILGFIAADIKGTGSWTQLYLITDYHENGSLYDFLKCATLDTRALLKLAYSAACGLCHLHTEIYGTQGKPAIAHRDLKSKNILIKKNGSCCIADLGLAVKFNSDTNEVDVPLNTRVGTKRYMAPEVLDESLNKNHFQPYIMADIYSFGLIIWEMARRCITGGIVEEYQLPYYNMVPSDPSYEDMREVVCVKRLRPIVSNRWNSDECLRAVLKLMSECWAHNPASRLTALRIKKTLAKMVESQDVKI

ATR, construct: Full length, human (from UniProt Q13535)
relative phosphorylation
Details | at +1 | at +2 | at +3 | at +4 | at -1 | at -2 | at -3 | at -4 | at -5
A fixed | 0.714 | 1.01 | 1.05 | 1.05 | 1.46 | 1.01 | 1.01 | 0.94 | 0.971
D fixed | 0.582 | 1.07 | 1.13 | 0.968 | 0.86 | 0.785 | 0.814 | 0.984 | 1.17
E fixed | 0.586 | 1.07 | 1.21 | 0.929 | 0.742 | 0.871 | 0.88 | 1.18 | 1.07
F fixed | 0.709 | 0.913 | 0.944 | 0.988 | 0.872 | 0.957 | 1.08 | 1.18 | 1.3
G fixed | 0.651 | 0.921 | 0.965 | 1.13 | 1.26 | 0.839 | 0.875 | 1.05 | 1.01
H fixed | 0.624 | 1.06 | 0.991 | 1.02 | 0.845 | 0.973 | 0.889 | 0.982 | 1.01
I fixed | 0.747 | 0.898 | 0.866 | 0.875 | 0.687 | 0.793 | 1.1 | 0.912 | 0.818
K fixed | 0.649 | 0.923 | 0.877 | 0.928 | 0.806 | 1.09 | 0.911 | 0.919 | 0.884
L fixed | 0.73 | 0.871 | 0.887 | 0.993 | 1.26 | 0.84 | 1.18 | 0.901 | 0.901
M fixed | 0.685 | 0.908 | 0.92 | 0.995 | 0.978 | 0.94 | 1.12 | 0.96 | 0.931
N fixed | 0.933 | 1.05 | 1 | 1.02 | 1.17 | 0.945 | 0.816 | 0.892 | 0.877
P fixed | 0.689 | 1.14 | 1.18 | 1.19 | 1.45 | 1.59 | 0.972 | 0.956 | 0.909
Q fixed | 5.91 | 1.23 | 1.09 | 0.994 | 1.2 | 1.03 | 0.859 | 0.926 | 0.871
R fixed | 0.83 | 1.09 | 0.972 | 0.97 | 0.855 | 1.67 | 1.62 | 0.982 | 1
V fixed | 0.665 | 0.967 | 0.988 | 0.849 | 0.725 | 0.768 | 0.884 | 0.867 | 0.802
W fixed | 0.618 | 0.926 | 0.934 | 1.11 | 0.842 | 0.916 | 1.08 | 1.26 | 1.23
Y fixed | 0.671 | 0.971 | 1 | 0.984 | 0.987 | 0.99 | 0.911 | 1.11 | 1.23
pThr fixed | 0.679 | 0.968 | 1.36 | 1.1 | 0.799 | 0.849 | 0.99 | 1.38 | 1.3
pTyr fixed | 0.62 | 1.01 | 1.03 | 1.44 | 0.904 | 1.14 | 1.83 | 2.14 | 1.62

BMPR1A, construct: aa187-end, human (from UniProt P36894)
relative phosphorylation
Details | at +1 | at +2 | at +3 | at +4 | at -1 | at -2 | at -3 | at -4 | at -5
A fixed | 0.574 | 0.952 | 0.911 | 0.854 | 0.648 | 0.721 | 0.791 | 0.912 | 0.982
D fixed | 2.03 | 1.24 | 1.79 | 1.3 | 1.72 | 1.97 | 2.32 | 2.47 | 1.88
E fixed | 6.79 | 1.52 | 1.55 | 1.31 | 1.95 | 7.73 | 2.92 | 1.81 | 1.65
F fixed | 0.398 | 0.622 | 0.89 | 0.889 | 0.797 | 0.384 | 0.65 | 0.792 | 0.807
G fixed | 0.58 | 1.89 | 0.941 | 1 | 0.483 | 0.579 | 0.948 | 0.958 | 0.93
H fixed | 0.431 | 1.25 | 0.889 | 1.06 | 0.983 | 0.483 | 0.826 | 0.987 | 1.02
I fixed | 0.677 | 0.554 | 1.01 | 1.01 | 0.809 | 0.432 | 0.662 | 0.781 | 0.83
K fixed | 0.335 | 0.803 | 0.498 | 0.738 | 0.587 | 0.351 | 0.564 | 0.741 | 0.86
L fixed | 0.417 | 0.613 | 0.926 | 0.797 | 1.17 | 0.453 | 0.649 | 0.701 | 0.802
M fixed | 0.57 | 0.721 | 0.85 | 0.922 | 1.67 | 0.462 | 0.859 | 0.808 | 0.791
N fixed | 0.668 | 0.776 | 0.793 | 0.946 | 1.01 | 0.693 | 1.24 | 1.08 | 1.22
P fixed | 0.265 | 1.31 | 0.936 | 0.964 | 0.466 | 0.401 | 0.74 | 0.775 | 0.699
Q fixed | 0.644 | 0.735 | 0.729 | 0.931 | 1.13 | 0.659 | 1.02 | 0.892 | 0.908
R fixed | 0.314 | 0.691 | 0.478 | 0.767 | 0.555 | 0.395 | 0.636 | 0.718 | 0.886
V fixed | 1.47 | 0.632 | 1.13 | 0.961 | 1.23 | 0.545 | 0.731 | 0.887 | 0.832
W fixed | 0.421 | 1.14 | 1.46 | 1.38 | 0.77 | 0.392 | 0.676 | 0.887 | 0.965
Y fixed | 0.417 | 1.55 | 1.21 | 1.18 | 1.02 | 0.349 | 0.755 | 0.791 | 0.928
pThr fixed | 5.36 | 1.98 | 1.01 | 1.31 | 1.08 | 1.66 | 2.19 | 1.53 | 1.46
pTyr fixed | 1.09 | 0.876 | 1.35 | 1.22 | 1.54 | 0.763 | 1.55 | 1.09 | 1.42
